The results in this text go back to patent US20150344570A1 (published 2015).

To fix the notation:
T1: FcγRIIb extracellular domain with C-terminal His tag (human, UniProt P31994 43-217)
T1 construct: extracellular domain; also called FcgRIIb; 2b
T1 sequence (looked up): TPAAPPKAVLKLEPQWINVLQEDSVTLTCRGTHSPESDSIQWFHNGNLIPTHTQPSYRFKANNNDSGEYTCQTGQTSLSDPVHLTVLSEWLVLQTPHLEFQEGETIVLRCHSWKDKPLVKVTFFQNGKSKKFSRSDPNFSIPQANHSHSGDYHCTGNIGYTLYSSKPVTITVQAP

B1: GpH7-A5/GpH7-B3 variant P271_09D/GpL16-k0 (antibody, human IgG1, kappa)
heavy 1: not shown
heavy 2: not shown
light: DIVMTQSPLSLPVTPGEPASISCQASESLVHSNRNTYLHWYLQKPGQSPQLLIYKVSNRFSGVPDRFSGSGSGTDFTLKISRVEAEDVGVYYCSQNTHVPPTFGQGTKVEIERTVAAPSVFIFPPSDEQLKSGTASVVCLLNNFYPREAKVQWKVDNALQSGNSQESVTEQDSKDSTYSLSSTLTLSKADYEKHKVYACEVTHQGLSSPVTKSFNRGEC
notes: also called He Ab P271_09D
B2: GpH7-A5/GpH7-B3 variant N325_20W/GpL16-k0 (antibody, human IgG1, kappa)
heavy 1: not shown
heavy 2: not shown
light: DIVMTQSPLSLPVTPGEPASISCQASESLVHSNRNTYLHWYLQKPGQSPQLLIYKVSNRFSGVPDRFSGSGSGTDFTLKISRVEAEDVGVYYCSQNTHVPPTFGQGTKVEIERTVAAPSVFIFPPSDEQLKSGTASVVCLLNNFYPREAKVQWKVDNALQSGNSQESVTEQDSKDSTYSLSSTLTLSKADYEKHKVYACEVTHQGLSSPVTKSFNRGEC
notes: also called He Ab N325_20W
B3: GpH7-A5/GpH7-B3 variant P238_10E/GpL16-k0 (antibody, human IgG1, kappa)
heavy 1: not shown
heavy 2: not shown
light: DIVMTQSPLSLPVTPGEPASISCQASESLVHSNRNTYLHWYLQKPGQSPQLLIYKVSNRFSGVPDRFSGSGSGTDFTLKISRVEAEDVGVYYCSQNTHVPPTFGQGTKVEIERTVAAPSVFIFPPSDEQLKSGTASVVCLLNNFYPREAKVQWKVDNALQSGNSQESVTEQDSKDSTYSLSSTLTLSKADYEKHKVYACEVTHQGLSSPVTKSFNRGEC
notes: also called He Ab P238_10E
B4: GpH7-A5/GpH7-B3 variant P238_19Q/GpL16-k0 (antibody, human IgG1, kappa)
heavy 1: not shown
heavy 2: not shown
light: DIVMTQSPLSLPVTPGEPASISCQASESLVHSNRNTYLHWYLQKPGQSPQLLIYKVSNRFSGVPDRFSGSGSGTDFTLKISRVEAEDVGVYYCSQNTHVPPTFGQGTKVEIERTVAAPSVFIFPPSDEQLKSGTASVVCLLNNFYPREAKVQWKVDNALQSGNSQESVTEQDSKDSTYSLSSTLTLSKADYEKHKVYACEVTHQGLSSPVTKSFNRGEC
notes: also called He Ab P238_19Q
B5: GpH7-A5/GpH7-B3 variant P238_20W/GpL16-k0 (antibody, human IgG1, kappa)
heavy 1: not shown
heavy 2: not shown
light: DIVMTQSPLSLPVTPGEPASISCQASESLVHSNRNTYLHWYLQKPGQSPQLLIYKVSNRFSGVPDRFSGSGSGTDFTLKISRVEAEDVGVYYCSQNTHVPPTFGQGTKVEIERTVAAPSVFIFPPSDEQLKSGTASVVCLLNNFYPREAKVQWKVDNALQSGNSQESVTEQDSKDSTYSLSSTLTLSKADYEKHKVYACEVTHQGLSSPVTKSFNRGEC
notes: also called He Ab P238_20W
B6: GpH7-A5/GpH7-B3 variant P238_06M/GpL16-k0 (antibody, human IgG1, kappa)
heavy 1: not shown
heavy 2: not shown
light: DIVMTQSPLSLPVTPGEPASISCQASESLVHSNRNTYLHWYLQKPGQSPQLLIYKVSNRFSGVPDRFSGSGSGTDFTLKISRVEAEDVGVYYCSQNTHVPPTFGQGTKVEIERTVAAPSVFIFPPSDEQLKSGTASVVCLLNNFYPREAKVQWKVDNALQSGNSQESVTEQDSKDSTYSLSSTLTLSKADYEKHKVYACEVTHQGLSSPVTKSFNRGEC
notes: also called He Ab P238_06M
B7: GpH7-A5/GpH7-B3 variant P271_10E/GpL16-k0 (antibody, human IgG1, kappa)
heavy 1: not shown
heavy 2: not shown
light: DIVMTQSPLSLPVTPGEPASISCQASESLVHSNRNTYLHWYLQKPGQSPQLLIYKVSNRFSGVPDRFSGSGSGTDFTLKISRVEAEDVGVYYCSQNTHVPPTFGQGTKVEIERTVAAPSVFIFPPSDEQLKSGTASVVCLLNNFYPREAKVQWKVDNALQSGNSQESVTEQDSKDSTYSLSSTLTLSKADYEKHKVYACEVTHQGLSSPVTKSFNRGEC
notes: also called He Ab P271_10E
B8: GpH7-A5/GpH7-B3 variant N325_04F/GpL16-k0 (antibody, human IgG1, kappa)
heavy 1: not shown
heavy 2: not shown
light: DIVMTQSPLSLPVTPGEPASISCQASESLVHSNRNTYLHWYLQKPGQSPQLLIYKVSNRFSGVPDRFSGSGSGTDFTLKISRVEAEDVGVYYCSQNTHVPPTFGQGTKVEIERTVAAPSVFIFPPSDEQLKSGTASVVCLLNNFYPREAKVQWKVDNALQSGNSQESVTEQDSKDSTYSLSSTLTLSKADYEKHKVYACEVTHQGLSSPVTKSFNRGEC
notes: also called He Ab N325_04F
B9: GpH7-A5/GpH7-B3 variant N325_13S/GpL16-k0 (antibody, human IgG1, kappa)
heavy 1: not shown
heavy 2: not shown
light: DIVMTQSPLSLPVTPGEPASISCQASESLVHSNRNTYLHWYLQKPGQSPQLLIYKVSNRFSGVPDRFSGSGSGTDFTLKISRVEAEDVGVYYCSQNTHVPPTFGQGTKVEIERTVAAPSVFIFPPSDEQLKSGTASVVCLLNNFYPREAKVQWKVDNALQSGNSQESVTEQDSKDSTYSLSSTLTLSKADYEKHKVYACEVTHQGLSSPVTKSFNRGEC
notes: also called He Ab N325_13S
B10: GpH7-A5/GpH7-B3 variant P331_03V/GpL16-k0 (antibody, human IgG1, kappa)
heavy 1: not shown
heavy 2: not shown
light: DIVMTQSPLSLPVTPGEPASISCQASESLVHSNRNTYLHWYLQKPGQSPQLLIYKVSNRFSGVPDRFSGSGSGTDFTLKISRVEAEDVGVYYCSQNTHVPPTFGQGTKVEIERTVAAPSVFIFPPSDEQLKSGTASVVCLLNNFYPREAKVQWKVDNALQSGNSQESVTEQDSKDSTYSLSSTLTLSKADYEKHKVYACEVTHQGLSSPVTKSFNRGEC
notes: also called He Ab P331_03V
B11: GpH7-A5/GpH7-B3 variant P238_16H/GpL16-k0 (antibody, human IgG1, kappa)
heavy 1: not shown
heavy 2: not shown
light: DIVMTQSPLSLPVTPGEPASISCQASESLVHSNRNTYLHWYLQKPGQSPQLLIYKVSNRFSGVPDRFSGSGSGTDFTLKISRVEAEDVGVYYCSQNTHVPPTFGQGTKVEIERTVAAPSVFIFPPSDEQLKSGTASVVCLLNNFYPREAKVQWKVDNALQSGNSQESVTEQDSKDSTYSLSSTLTLSKADYEKHKVYACEVTHQGLSSPVTKSFNRGEC
notes: also called He Ab P238_16H

In the assay the target is T1, FcγRIIb extracellular domain with …. Description: SPR (Biacore), relative binding. On the technique in general: Surface plasmon resonance follows binding to a sensor surface in real time, without labels.
For the molecule B1, the He/Con_2b is 120 % of HeCon Ab GpH7-A5/GpH7-B3/GpL16-k0. With B2, the He/Con_2b was 169 % of HeCon Ab GpH7-A5/GpH7-B3/GpL16-k0. Consider B3, for which the He/Con_2b is 232 % of HeCon Ab GpH7-A5/GpH7-B3/GpL16-k0. The result for B4 reads 110 % of HeCon Ab GpH7-A5/GpH7-B3/GpL16-k0. With B5, the He/Con_2b was 123 % of HeCon Ab GpH7-A5/GpH7-B3/GpL16-k0. The result for B6 reads 174 % of HeCon Ab GpH7-A5/GpH7-B3/GpL16-k0. The result for B7 reads 109 % of HeCon Ab GpH7-A5/GpH7-B3/GpL16-k0; that for B8, 143 % of HeCon Ab GpH7-A5/GpH7-B3/GpL16-k0; that for B9, 177 % of HeCon Ab GpH7-A5/GpH7-B3/GpL16-k0.

Consider B10, for which the He/Con_2b was 119 % of HeCon Ab GpH7-A5/GpH7-B3/GpL16-k0. As for B11, the figure is 115 % of HeCon Ab GpH7-A5/GpH7-B3/GpL16-k0.
